Results taken from IntAct's records for PubMed 28620713.

B1: Cytochrome P450 1B1 (Homo sapiens), Q16678 (parent)
chain: MGTSLSPNDPWPLNPLSIQQTTLLLLLSVLATVHVGQRLLRQRRRQLRSAPPGPFAWPLIGNAAAVGQAAHLSFARLARRYGDVFQIRLGSCPIVVLNGERAIHQALVQQGSAFADRPAFASFRVVSGGRSMAFGHYSEHWKVQRRAAHSMMRNFFTRQPRSRQVLEGHVLSEARELVALLVRGSADGAFLDPRPLTVVAVANVMSAVCFGCRYSHDDPEFRELLSHNEEFGRTVGAGSLVDVMPWLQYFPNPVRTVFREFEQLNRNFSNFILDKFLRHCESLRPGAAPRDMMDAFILSAEKKAAGDSHGGGARLDLENVPATITDIFGASQDTLSTALQWLLLLFTRYPDVQTRVQAELDQVVGRDRLPCMGDQPNLPYVLAFLYEAMRFSSFVPVTIPHATTANTSVLGYHIPKDTVVFVNQWSVNHDPLKWPNPENFDPARFLDKDGLINKDLTSRVMIFSVGKRRCIGEELSKMQLFLFISILAHQCDFRANPNEPAKMNFSYGLTIKPKSFKVNVTLRESMELLDSAVQNLQAKETCQ

Variants of: B1
Settings: with tie2_human TEK

Variant | effect of a mutation on the interaction
MGTSLSPNDPWPLNPLSIQQTTLLLLLSVLATVHVGQRLLRQRRRQLRSAPPGPFAWPLIGNAAAVGQAAHLSFARLARRYGDVFQIRLGSCPIVVLNGERAIHQALVQQGSAFADRPAFASFRVVSGGRSMAFGHYSEHWKVQRRAAHSMMRNFFTRQPRSRQVLEGHVLSEARELVALLVRGSADGAFLDPRPLTVVAVANVMSAVCFGCRYSHDDPEFRELLSHNKEFGRTVGAGSLVDVMPWLQYFPNPVRTVFREFEQLNRNFSNFILDKFLRHCESLRPGAAPRDMMDAFILSAEKKAAGDSHGGGARLDLENVPATITDIFGASQDTLSTALQWLLLLFTRYPDVQTRVQAELDQVVGRDRLPCMGDQPNLPYVLAFLYEAMRFSSFVPVTIPHATTANTSVLGYHIPKDTVVFVNQWSVNHDPLKWPNPENFDPARFLDKDGLINKDLTSRVMIFSVGKRRCIGEELSKMQLFLFISILAHQCDFRANPNEPAKMNFSYGLTIKPKSFKVNVTLRESMELLDSAVQNLQAKETCQ [E229K] | disrupting interaction strength

Variants of: B1
Settings: with tie2_human TEK
Remark: another data set of the same source

Variant | effect of a mutation on the interaction
MGTSLSPNDPWPLNPLSIQQTTLLLLLSVLATVHVGQRLLRQRRRQLRSAPPGPFAWPLIGNAAAVGQAAHLSFARLARRYGDVFQIRLGSCPIVVLNGERAIHQALVQQGSAFADRPAFASFRVVSGGRSMAFGHYSEHWKVQRRAAHSMMRNFFTRQPRSRQVLEGHVLSEARELVALLVRGSADGAFLDPRPLTVVAVANVMSAVCFGCRYSHDDPEFRELLSHNKEFGRTVGAGSLVDVMPWLQYFPNPVRTVFREFEQLNRNFSNFILDKFLRHCESLRPGAAPRDMMDAFILSAEKKAAGDSHGGGARLDLENVPATITDIFGASQDTLSTALQWLLLLFTRYPDVQTRVQAELDQVVGRDRLPCMGDQPNLPYVLAFLYEAMRFSSFVPVTIPHATTANTSVLGYHIPKDTVVFVNQWSVNHDPLKWPNPENFDPARFLDKDGLINKDLTSRVMIFSVGKRRCIGEELSKMQLFLFISILAHQCDFRANPNEPAKMNFSYGLTIKPKSFKVNVTLRESMELLDSAVQNLQAKETCQ [E229K] | with no effect

Variants of: B1
Settings: with tie2_human TEK
Remark: another data set of the same source

Variant | effect of a mutation on the interaction
MGTSLSPNDPWPLNPLSIQQTTLLLLLSVLATVHVGQRLLRQRRRQLRSAPPGPFAWPLIGNAAAVGQAAHLSFARLARRYGDVFQIRLGSCPIVVLNGERAIHQALVQQGSAFADRPAFASFRVVSGGRSMAFGHYSEHWKVQRRAAHSMMRNFFTRQPRSRQVLEGHVLSEARELVALLVRGSADGAFLDPRPLTVVAVANVMSAVCFGCRYSHDDPEFRELLSHNEEFGRTVGAGSLVDVMPWLQYFPNPVRTVFREFEQLNRNFSNFILDKFLRHCESLRPGAAPRDMMDAFILSAEKKAAGDSHGGGARLDLENVPATITDIFGASQDTLSTALQWLLLLFTRYPDVQTRVQAELDQVVGRDHLPCMGDQPNLPYVLAFLYEAMRFSSFVPVTIPHATTANTSVLGYHIPKDTVVFVNQWSVNHDPLKWPNPENFDPARFLDKDGLINKDLTSRVMIFSVGKRRCIGEELSKMQLFLFISILAHQCDFRANPNEPAKMNFSYGLTIKPKSFKVNVTLRESMELLDSAVQNLQAKETCQ [R368H] | decreasing interaction strength
MGTSLSPNDPWPLNPLSIQQTTLLLLLSVLATVHVGQRLLRQRRRQLRSAPPGPFAWPLIGNAAAVGQAAHLSFARLARRYGDVFQIRLGSCPIVVLNGERAIHQALVQQGSAFPDRPAFASFRVVSGGRSMAFGHYSEHWKVQRRAAHSMMRNFFTRQPRSRQVLEGHVLSEARELVALLVRGSADGAFLDPRPLTVVAVANVMSAVCFGCRYSHDDPEFRELLSHNEEFGRTVGAGSLVDVMPWLQYFPNPVRTVFREFEQLNRNFSNFILDKFLRHCESLRPGAAPRDMMDAFILSAEKKAAGDSHGGGARLDLENVPATITDIFGASQDTLSTALQWLLLLFTRYPDVQTRVQAELDQVVGRDRLPCMGDQPNLPYVLAFLYEAMRFSSFVPVTIPHATTANTSVLGYHIPKDTVVFVNQWSVNHDPLKWPNPENFDPARFLDKDGLINKDLTSRVMIFSVGKRRCIGEELSKMQLFLFISILAHQCDFRANPNEPAKMNFSYGLTIKPKSFKVNVTLRESMELLDSAVQNLQAKETCQ [A115P] | disrupting interaction strength
